Test results: patent US20240301052A1 (LANOVA MEDICINES DEVELOPMENT, published 2024)

T1: human SLC34A2 (human, UniProt O95436 1-690)
T1 construct: whole, on cells; also called human solute carrier 34 A2; NaPi2b
T1 sequence (looked up): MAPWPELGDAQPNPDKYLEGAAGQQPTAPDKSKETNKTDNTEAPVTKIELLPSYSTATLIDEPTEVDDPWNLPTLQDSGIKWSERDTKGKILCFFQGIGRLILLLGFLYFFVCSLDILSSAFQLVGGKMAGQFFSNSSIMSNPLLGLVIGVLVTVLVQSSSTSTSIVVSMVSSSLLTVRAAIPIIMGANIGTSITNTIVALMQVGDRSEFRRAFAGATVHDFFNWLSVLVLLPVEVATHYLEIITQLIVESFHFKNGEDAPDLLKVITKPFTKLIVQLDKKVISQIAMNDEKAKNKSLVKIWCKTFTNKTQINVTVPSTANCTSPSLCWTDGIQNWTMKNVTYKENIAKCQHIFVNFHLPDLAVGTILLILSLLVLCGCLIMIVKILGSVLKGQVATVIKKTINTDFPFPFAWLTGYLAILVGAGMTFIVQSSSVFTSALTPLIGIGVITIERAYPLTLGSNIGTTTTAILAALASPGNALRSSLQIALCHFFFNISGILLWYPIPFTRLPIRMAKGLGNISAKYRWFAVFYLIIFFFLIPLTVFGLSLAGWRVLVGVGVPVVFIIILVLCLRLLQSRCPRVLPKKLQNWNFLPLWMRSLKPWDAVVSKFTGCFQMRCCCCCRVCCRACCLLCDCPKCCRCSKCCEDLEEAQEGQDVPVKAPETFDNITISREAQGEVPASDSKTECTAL

T2: Rhesus SLC34A2 (Rhesus, UniProt F7HDA3 1-690)
T2 construct: whole, on cells
T2 sequence: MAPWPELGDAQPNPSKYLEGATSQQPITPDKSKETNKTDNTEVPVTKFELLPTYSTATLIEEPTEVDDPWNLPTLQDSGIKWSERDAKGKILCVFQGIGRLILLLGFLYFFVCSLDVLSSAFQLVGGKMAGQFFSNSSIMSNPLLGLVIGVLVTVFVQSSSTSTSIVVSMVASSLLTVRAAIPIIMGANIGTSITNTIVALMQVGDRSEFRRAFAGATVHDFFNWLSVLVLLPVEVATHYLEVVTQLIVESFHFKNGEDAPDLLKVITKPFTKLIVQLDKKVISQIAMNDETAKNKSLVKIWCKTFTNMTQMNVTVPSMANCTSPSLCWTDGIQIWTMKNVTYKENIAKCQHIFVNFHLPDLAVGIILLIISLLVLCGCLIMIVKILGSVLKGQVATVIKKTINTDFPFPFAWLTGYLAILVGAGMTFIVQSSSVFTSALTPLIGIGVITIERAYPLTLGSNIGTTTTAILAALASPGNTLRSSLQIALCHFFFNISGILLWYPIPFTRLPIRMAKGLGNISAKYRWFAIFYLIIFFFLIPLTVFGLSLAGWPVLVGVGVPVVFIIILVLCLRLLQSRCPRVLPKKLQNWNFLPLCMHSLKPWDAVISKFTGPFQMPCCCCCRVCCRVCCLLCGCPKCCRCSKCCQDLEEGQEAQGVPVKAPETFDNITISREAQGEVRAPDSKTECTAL

T3: Cynomolgus SLC34A2 (Cynomolgus, UniProt A0A2K5UHY1 1-690)
T3 construct: whole, on cells; also called Cyno SLC34A2
T3 sequence: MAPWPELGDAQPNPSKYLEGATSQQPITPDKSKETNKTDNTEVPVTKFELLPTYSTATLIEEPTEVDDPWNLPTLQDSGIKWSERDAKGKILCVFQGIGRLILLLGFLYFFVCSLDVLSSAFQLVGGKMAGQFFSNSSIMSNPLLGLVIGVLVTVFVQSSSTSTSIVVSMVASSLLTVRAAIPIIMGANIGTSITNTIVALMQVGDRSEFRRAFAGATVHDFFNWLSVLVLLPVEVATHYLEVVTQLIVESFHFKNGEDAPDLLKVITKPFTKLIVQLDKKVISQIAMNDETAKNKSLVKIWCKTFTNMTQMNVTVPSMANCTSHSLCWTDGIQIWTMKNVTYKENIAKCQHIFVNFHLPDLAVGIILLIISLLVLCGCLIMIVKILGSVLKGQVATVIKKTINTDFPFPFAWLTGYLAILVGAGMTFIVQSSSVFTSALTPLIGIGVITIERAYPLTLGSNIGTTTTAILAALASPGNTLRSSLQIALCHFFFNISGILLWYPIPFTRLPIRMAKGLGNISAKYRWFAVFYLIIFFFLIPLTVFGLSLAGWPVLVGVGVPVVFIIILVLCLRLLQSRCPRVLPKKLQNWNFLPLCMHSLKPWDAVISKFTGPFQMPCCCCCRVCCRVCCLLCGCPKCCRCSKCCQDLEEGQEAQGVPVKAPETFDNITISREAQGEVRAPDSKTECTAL


What was measured:
human SLC34A2 [1] = biological target: T1, human SLC34A2; experiment: FACS, RMG-1 cells
Protocol: Based on the foregoing cell-based binding results, some of the chimeric antibodies were selected for further cell based binding on human SLC34A2 expressing cells using flow cytometry. RMG-1 cells were incubated with the selected chimeric antibodies (from 200 nM, 4 folds dilution, 8 points). After incubation at 4° C. for 60 minutes, the cells were washed with FACS buffer twice, then stained with fluorescent conjugated secondary antibody at 4° C. for 30 minutes. Afterwards the cells were washed twice and analyzed by flow cytometry.

Rhesus SLC34A2 = biological target: T2, Rhesus SLC34A2; experiment: FACS, HEK293/Rhesus SLC34A2 cells
Protocol: Briefly, the Rhesus SLC34A2 expressing HEK293 engineering cells (HEK293/Rhesus_SLC34A2) were incubated with chimeric Abs (from 200 nM, 4 folds dilution, 8 points). After incubation at 4° C. for 60 minutes, the cells were washed with FACS buffer twice, then stained with fluorescent conjugated secondary antibody at 4° C. for 30 minutes. After that the cells were washed twice and analyzed by flow cytometry.

human SLC34A2 [2] = biological target: T1, human SLC34A2; experiment: FACS, HEK293/human SLC34A2 cells
Protocol: Briefly, OVCAR3 cells or HEK293 cells expressing human SLC34A2 were incubated with chimeric antibodies (from 200 nM, 4 folds dilution, 8 points). After incubation at 4° C. for 60 minutes, the cells were washed with FACS buffer twice, then stained with fluorescent conjugated secondary antibody at 4° C. for 30 minutes. After that the cells were washed twice and analyzed by flow cytometry.

human SLC34A2 [3] = biological target: T1, human SLC34A2; experiment: FACS, OVCAR3 cells
Summary of the method: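 Flow cytometry binding: cells (OVCAR3, or HEK293 transfected with human SLC34A2) exposed 60 min at 4° C to chimeric hIgG1, 8-point 4-fold series starting 200 nM. Washed, stained 30 min at 4° C with fluorescent anti-human secondary, then analysed.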

human SLC34A2 [4] = biological target: T1, human SLC34A2; experiment: cell-based or functional assay
human SLC34A2 [5] = biological target: T1, human SLC34A2; experiment: cell-based or functional assay; remark: listed apart in the source
Cynomolgus SLC34A2 = biological target: T3, Cynomolgus SLC34A2; experiment: FACS, cells expressing Cynomolgus SLC34A2
human SLC34A2 [6] = biological target: T1, human SLC34A2; experiment: FACS, OVCAR3 cells; remark: listed apart in the source

Binder | EC50 (human SLC34A2 [1]) [nM] | Top (MFI) (human SLC34A2 [1]) | EC50 (Rhesus SLC34A2) [nM] | Top (MFI) (Rhesus SLC34A2) | EC50 (human SLC34A2 [2]) [nM] | Top (MFI) (human SLC34A2 [2]) | EC50 (human SLC34A2 [3]) [nM] | Top (MFI) (human SLC34A2 [3]) | ADCC reporter EC50 (human SLC34A2 [4]) [nM] | ADCC reporter Top (MFI) (human SLC34A2 [4]) | cytotoxicity EC50 (human SLC34A2 [5]) [nM] | cytotoxicity Inhibition % (human SLC34A2 [5]) [%] | EC50 (Cynomolgus SLC34A2) [nM] | Top (MFI) (Cynomolgus SLC34A2) | EC50 (human SLC34A2 [6]) [nM] | Top (MFI) (human SLC34A2 [6])
xi87H12B7 hIgG1 (antibody, V domains shown, chimeric, hIgG1) VH: QVQLQQPGAEVVRPGASVKMSCKASGYTFTSYIVHWVKQPPGQGLEWIGAIYPGNGDTSYIQKFKGRATLTADKSSSTVYMQLSSLTSEDSAVYYCARGHYYGSAAWFGFWGQGTLVTVSA VL: DILLTQSPAILSVSPGERVSFSCRASQNIGTSIHWYQQRTNDSPRLLMRYASESVSGIPSRFSGSGSGTDFTLSINSVESEDIADYYCQQSNTWPLTFGAGTKLELK | 9.11 | 9660 | 2.85 | 18300 | 1.62 | 44900 | 5.43 | 27800 | 5.1 | 195000 | 0.35 | 82.6 | 7.66 | 4710 |  | 
xi94E9B12 hIgG1 (antibody, V domains shown, chimeric, hIgG1) VH: QVQLQQPGAELVKPGASVKMSCKASGYTFTSYNMQWVKQTYGQGLEWIGAISPGSGETSYNQNFKVKATLTADKISSTAYMQLSSLTSEDSAVYYCARAARAEGWFAYWGQGTLVTVSA VL: DIVMTQSHKFMSTSVGDRVSITCKASQDVGHAVVWYQQKPGQFPKLLIYWASTRHAGVPDRFTGSGSGTDFTLTISNVQSEDLADYFCQQFRSIPLTFGSGTKLEIK | 9.05 | 10000 | 2.38 | 18700 | 2.48 | 106000 | 11 | 46200 | 3.3 | 382000 | 0.85 | 83.6 | 2.51 | 3580 |  | 
xi94B10A8 hIgG1 (antibody, V domains shown, chimeric, hIgG1) VH: QVQLQQTGAELVKPGASVKMSCKASGYTFTGYIIHWIKQRPGQGLEWIGAIYPGNGDTSYNQKIKGRATLTADKSSTTAYMQLSSLTSEDSAVYYCARGDYGNPAWFAYWGQGTLVTVSA VL: DVVLTQSPATLSVTPGDRVSLSCRASQSISNYLYWYQQKAHESPRLLIKFASQSISGIPSRFRGSGSGTDFTLSINSVETEDFGMYFCQQSNKWPLTFGAGTKLELK | 2.58 | 9370 | 2.24 | 13700 | 1.17 | 91300 | 1.57 | 39600 | 4 | 486000 | 0.7 | 97.5 | 5.47 | 3150 |  | 
xi78D1B10 hIgG1 (antibody, V domains shown, chimeric, hIgG1) VH: QVQLQQPGADLVKPGASVKLSCKASGFTFTSYIIHWVKQTPGQGLEWIGAIYPGNGDTSYIQKFKGRATLTADKSSTTAYMQLGGLTSEDSAVYYCARGTYGSSAWFVYWGQGTLVTVSA VL: DIVLTQSPATLSVTPGDSVSLSCRASQSISNNLYWYQQKSHESPRLLIKYASQSISGIPSRFRGSGSGTDFTLSINSVETEDFGMYFCQQSNSWPLTFGAGTKLELK | 2.1 | 9860 | 1.58 | 16000 | 1.26 | 47700 | 2.52 | 27500 | 2.6 | 212000 | 0.5 | 94 | 1.5 | 4400 |  | 
91C9F1.p1.z1 hIgG1 (antibody, V domains shown, humanized hIgG1) VH: QVQLVQSGAEVKKPGSSVKVSCKASGFFFTEYIIHWVRQAPGQGLEWMGGIIPNNDVTNYKQNFRGRVTITADESTSTAYMELSSLRSEDTAVYYCARWRNAYYSAMDSWGQGTTVTVSS VL: DIQMTQSPSSLSASVGDRVTITCTASQDVGTAVAWYQQKPGKVPKLLIYWASTRHTGVPSRFSGSGSGTDFTLTISSLQPEDVATYYCQQYRTSPLTFGGGTKVEIK |  |  |  |  |  |  |  |  |  |  |  |  |  |  | 3.78 | 34200
91C9F1.p1.z2 hIgG1 (antibody, V domains shown, humanized hIgG1) VH: QVQLVQSGAEVKKPGSSVKVSCKASGFFFTEYIIHWVRQAPGQGLEWMGGIIPNNDVTNYKQNFRGRVTITADESTSTAYMELSSLRSEDTAVYYCARWRNAYYSAMDSWGQGTTVTVSS VL: DIQMTQSPSSLSTSVGDRVTITCTASQDVGTAVAWYQQKPGKSPKLLIYWASTRHTGVPERFSGSGSGTDFTLTISSLQPEDVATYFCQQYRTSPLTFGGGTKVEIK |  |  |  |  |  |  |  |  |  |  |  |  |  |  | 3.32 | 34500
